The source of these data is patent US20250101096A1 (SERA PROGNOSTICS, published 2025).

One may read the Kd as the equilibrium constant for the complex coming apart. Low values mean tighter binding, high ones weaker binding. The koff is the first-order rate constant of dissociation. Low readings indicate slow dissociation, high ones fast dissociation. By kon is commonly meant the second-order rate constant of association. Read a high kon as faster complex formation.

Assay [1] deals with T1, human insulin-like growth factor binding protein 4 (IBP4) (human, UniProt P22692 22-258).
T1 construct: also called IBP4 protein; IGFBP4
T1 sequence: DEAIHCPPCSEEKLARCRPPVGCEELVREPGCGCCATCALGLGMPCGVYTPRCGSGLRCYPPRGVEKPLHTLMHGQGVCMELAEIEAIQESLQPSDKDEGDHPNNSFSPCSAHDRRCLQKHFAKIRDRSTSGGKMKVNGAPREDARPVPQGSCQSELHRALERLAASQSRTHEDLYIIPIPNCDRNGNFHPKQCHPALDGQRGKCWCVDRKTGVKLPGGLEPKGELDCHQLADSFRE
The experiment in a line: AC-MS, mAb on M-PVA beads, QC2 serum, round 1.

Assay [2] concerns the target T1, human insulin-like growth factor …. As to the kind of experiment: AC-MS, mAb on M-PVA beads, QC2 serum, round 3 (beads reused).
Assay [3] has the same target. As to the kind of experiment: AC-MS, mAb on M-PVA beads, pooled pregnant serum, peptide …. An excerpt: (§1) Anti-IBP4 antibody evaluation and selection. A total of 8 hybridoma clones (1H9.B6, 5C11.A7, 7G11.H4, 3D4.E9, 1G3.A3, 8G4.G11, 5F10.B2, and 3D8.A11) were produced according to the “additional production of anti-IBP4 antibodies” methods disclosed in Example 1 and screened by AC-MS, shown in Table 10 below. Monoclonal antibodies from these clones purified by protein-G affinity chromatography were covalently coupled to M-PVA magnetic beads and used in AC-MS experiments using pooled pregnant serum. The 5B3.G9 anti-IBP4 antibody clone was included in this analysis for comparison to the performance of the additional IBP4 antibodies, as shown and italicized in Table 10 below. Table 10 includes a summary of the additional antibodies Response Ratios and shared epitope binding results as determined by the competitive binding assays of Example 3.

Assay [4] shares this target. As to the kind of experiment: SPR, format and IBP4 form not stated. Background: SPR reads the build-up and loss of mass on a sensor chip optically.
Assay [5] shares this target. As to the kind of experiment: AC-MS, mAb on M-PVA beads, QC2 serum, round 2 (beads reused).
For assay [6] the target is unchanged. As to the kind of experiment: AC-MS, mAb on M-PVA beads, pooled pregnant serum.
Excerpt: as §1

For assay [7], the target named is T2, anti-IBP4 antibody clone variant 5B3.G9.
T2 construct: Mouse monoclonal; variant form expressed in CHO cells; also called IBP4 (5B3.G9) V1; IBP4-5B3.G9
The experiment in a line: ECLIA, peptide competes with IBP4 for the antibody.

Assay [8] deals with T3, anti-IBP4 antibody clone variant 7D6.G4.
T3 construct: Mouse monoclonal; variant form; also called IBP4 (7D6.G4) V2; IBP4-7D6.G4
The experiment in a line: ECLIA, peptide competes with IBP4 for the antibody.

For assay [9], the target named is T4, human sex hormone-binding globulin (SHBG) (human, UniProt P04278 30-402, O-linked glycan at T36 (native glycosylated form)).
T4 construct: Purified human SHBG, the SHBG antigen of the SPR runs, or SHBG in human serum; also called SHBG protein
T4 sequence: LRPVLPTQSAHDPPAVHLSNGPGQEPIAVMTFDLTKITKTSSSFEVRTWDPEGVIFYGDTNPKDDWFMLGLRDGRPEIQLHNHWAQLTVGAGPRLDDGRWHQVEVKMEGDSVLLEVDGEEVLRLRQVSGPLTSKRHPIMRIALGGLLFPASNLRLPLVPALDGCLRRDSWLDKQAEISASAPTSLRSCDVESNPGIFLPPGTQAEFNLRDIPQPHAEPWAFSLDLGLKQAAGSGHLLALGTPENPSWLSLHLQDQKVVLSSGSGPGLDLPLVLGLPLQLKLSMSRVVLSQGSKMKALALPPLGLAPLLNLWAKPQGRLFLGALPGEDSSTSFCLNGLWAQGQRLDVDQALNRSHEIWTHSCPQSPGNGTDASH
As to the kind of experiment: SPR (Biacore T100), mAb captured on anti-mouse IgG, SHBG antigen injected, 1:1 fit, assay 3. On the procedure:
(§2) Surface plasmon resonance experiments were performed on a BiacoreT100 to characterize the anti-SHBG and anti-IBP4 antibodies. Anti-mouse-IgG antibody was amine coupled to ˜500 RU on a C1 sensor chip using standard NHS/EDC activation. Test monoclonal antibodies were captured on the anti-mouse-IgG surfaces. The binding for the Sex Hormone Binding Globulin Antigen to anti-SHBG variant antibodies 4G10.F8 and 13C9.E5 were measured in a multi-cycle kinetic mode. Binding studies were performed in PBS buffer+0.05% P20+3 mM EDTA at 25 degrees C. SHBG was captured for 1 minute at 200 nM and regenerated with 1/100 H3PO4 after each cycle. SHBG was captured to similar densities on 2 different flow cells followed by an injection of the SHBG antigen in a 3-fold titration series up to 600 nM over the two surfaces. The responses were processed by subtracting the buffer injection to correct for drift. The data sets fit well to a simple 1:1 interaction model using SCRUBBER (Biologic Software Pty Ltd). The antigen concentration series was tested three times over each surface, giving rise to the kinetic an affinity parameters summarized below.

Assay [10] deals with T4, human sex hormone-binding globulin …. The experiment in a line: SPR (Biacore T100), mAb captured on anti-mouse IgG, SHBG antigen injected, 1:1 fit, assay 2. On the procedure:
as §2

For assay [11] the target is unchanged. The experiment in a line: SPR (Biacore T100), mAb captured on anti-mouse IgG, SHBG antigen injected, average of 3 assays. On the procedure: as §2
The target is the same in assay [12]. As to the kind of experiment: SPR (Biacore T100), mAb captured on anti-mouse IgG, SHBG antigen injected, 1:1 fit, assay 1. The method, then:
as §2

Numbering of substitutions follows the chain as printed.

T2 sequence (heavy, as listed by the source, chain 1 of 2): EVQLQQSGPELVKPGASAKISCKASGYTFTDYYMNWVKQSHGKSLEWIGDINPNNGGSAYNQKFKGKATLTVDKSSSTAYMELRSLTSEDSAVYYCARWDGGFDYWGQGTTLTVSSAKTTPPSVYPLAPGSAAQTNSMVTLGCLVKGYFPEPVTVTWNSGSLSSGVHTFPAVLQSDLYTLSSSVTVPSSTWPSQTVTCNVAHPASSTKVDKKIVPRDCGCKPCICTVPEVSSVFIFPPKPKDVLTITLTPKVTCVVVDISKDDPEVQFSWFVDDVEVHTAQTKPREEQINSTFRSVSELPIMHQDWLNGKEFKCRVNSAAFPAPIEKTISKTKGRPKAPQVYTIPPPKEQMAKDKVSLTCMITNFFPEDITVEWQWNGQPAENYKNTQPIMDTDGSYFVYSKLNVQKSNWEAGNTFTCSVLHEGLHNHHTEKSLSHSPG
T2 sequence (light, as listed by the source, chain 2 of 2): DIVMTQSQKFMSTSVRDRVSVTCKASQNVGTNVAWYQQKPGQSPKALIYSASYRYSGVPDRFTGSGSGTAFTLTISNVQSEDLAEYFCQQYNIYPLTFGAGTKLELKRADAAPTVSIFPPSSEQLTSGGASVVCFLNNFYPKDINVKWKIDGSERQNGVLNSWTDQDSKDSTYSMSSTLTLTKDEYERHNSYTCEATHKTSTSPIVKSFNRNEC
T3 sequence (VH, as listed by the source, chain 1 of 2): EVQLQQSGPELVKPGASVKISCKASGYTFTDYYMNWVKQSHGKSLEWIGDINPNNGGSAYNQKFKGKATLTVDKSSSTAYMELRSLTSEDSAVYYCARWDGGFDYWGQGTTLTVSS
T3 sequence (VL, as listed by the source, chain 2 of 2): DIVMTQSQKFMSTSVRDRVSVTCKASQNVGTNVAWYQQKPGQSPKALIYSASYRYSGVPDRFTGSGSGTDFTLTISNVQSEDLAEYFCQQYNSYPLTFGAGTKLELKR

B1: anti-IBP4 antibody 1G3.A3 (antibody, mouse IgG1)
heavy: QVQLQQSGAELVRPGASVTLSCKASGYTFTDYEMHWVKQTPVHGLEWIGAIDPETGGIAYNQKFRGKAILTADKSSSTAYMELRSLTSEDSAVYYCARNYGISSYYAVDYWGQGTSVTVSSAKTTPPSVYPLAPGSAAQTNSMVTLGCLVKGYFPEPVTVTWNSGSLSSGVHTFPAVLQSDLYTLSSSVTVPSSTWPSQTVTCNVAHPASSTKVDKKIVPRDCGCKPCICTVPEVSSVFIFPPKPKDVLTITLTPKVTCVVVDISKDDPEVQFSWFVDDVEVHTAQTKPREEQINSTFRSVSELPIMHQDWLNGKEFKCRVNSAAFPAPIEKTISKTKGRPKAPQVYTIPPPKEQMAKDKVSLTCMITNFFPEDITVEWQWNGQPAENYKNTQPIMDTDGSYFVYSKLNVQKSNWEAGNTFTCSVLHEGLHNHHTEKSLSHSPGK
light: DIVMTQSQKFMSTTVGERVSITCKASQNVGTAVAWYQQKPGQSPKLLIYSASNRYTGVPDRFTGSGSGTDFTLTISNMQSEDLADYVSQQYSSYPLTFGAGTKLELK
notes: Mouse hybridoma mAb raised against FL IBP4; also called IBP4-1G3.A3
B1: the “ave RR” value in assay [1] amounted to 0.281. Further, the “ave RR” value in assay [2] came to 0.289. Also, the “Response Ratio” value in assay [3] was 0.272. In [4], the Kd was 22 nM, the koff amounted to 0.0033 s⁻¹, the kon is 160000 M⁻¹ s⁻¹ and the t1/2 is 3.5 min. Besides, in assay [5], the “ave RR” value was 0.291. The “ave IBP4 AC-MS RR” value in assay [6] is 0.272.
For the molecule HPKQCHPALDGQRGK [G6], the binding result in assay [7] and in [8] was “no binding (tested: about 7 ul of peptide)” throughout.
As to CHPALDGQRGKCWCV [G8], the binding result in assay [7] and in assay [8] was “binds” each time.
PALDGQRGKCWCVDR [G9]: the binding result in assay [7] and in [8] was “binds” throughout.

B2: anti-IBP4 antibody 3D4.E9 (antibody, mouse IgG2b, kappa, V domains shown)
VH: QVQLQQSGAELVRPGASVTLSCKASGYTFTDYEMHWVKQTPVHGLEWIGAIDPETGGAAYNQKFKGKAILTADKSSSTAYMELRSLTSEDSAVYYCTRARGSSSVYYFDYWGQGTTLTVSS
VL: DIVMTQSQKFMSTSVGDRVSVTCKASQNVGTNVAWYQQKPGQSPKALIYSTSYRYSGVPDRFTGSRSGTDFILTISNVQSEDLAEYFCQQYDSYPLTFGSGTKLEIKR
notes: Mouse hybridoma mAb raised against FL IBP4; also called IBP4-3D4.E9
Turning to B2, the “ave RR” value in [1] stood at 0.491. For the same molecule, the “ave RR” value in assay [2] stood at 0.454. For the same molecule, the “Response Ratio” value in [3] was 0.439. In assay [4], this molecule had a Kd of 8 nM, a koff of 0.00221 s⁻¹, a kon of 270000 M⁻¹ s⁻¹ and a t1/2 of 5.23 min. The “ave RR” value in assay [5] was 0.468. The “ave IBP4 AC-MS RR” value in assay [6] amounted to 0.439.

B3: anti-SHBG antibody clone variant 13C9.E5 (antibody, mouse IgG1, kappa, V domains shown)
VH: QIQLQQPGAELVKPGASVKMSCKASGYTFTGYWMHWVKQRPGQGLEWIGVIDPSDTYTNYNQKFRGKATLTVDTSSSTAYMQLSGLTSEDSAVYYCTRDPLVTADFDYWGQGTTLTVSS
VL: B2 VL with G30D, Q37R, T51A, Y55F, R66G, I72T, V78F, L96Y, S100G
notes: Mouse monoclonal; variant form; also called SHBG (13C9.E5) Anti SHBG v2; SHBG #16
Turning to B3, the Kd worked out at 1.27 nM in [9], 0.765 nM in assay [10], 0.8 nM in assay [11] and 0.415 nM in assay [12]. Also, the koff in assay [9] stood at 0.000119 s⁻¹; in [10], 7.94e-05 s⁻¹; in [11], 8e-05 s⁻¹; in [12], 4.54e-05 s⁻¹. Further, the kon in assay [9] amounted to 94100 M⁻¹ s⁻¹; in assay [10] it was 104000 M⁻¹ s⁻¹; in assay [11], 103000 M⁻¹ s⁻¹; in assay [12], 109000 M⁻¹ s⁻¹.
For the molecule VDRKTGVKLPGGLEP [H3], the binding result in assay [7] and in [8] was “no binding (tested: about 7 ul of peptide)” throughout.
Take LDGQRGKCWCVDRKT [G10]: the binding result in [7] and in [8] was “binds” in each case.
